Values quoted from earlier work as cited in PMC3113340.

Molecular target: IL-1ra (Homo sapiens) (UniProt P18510)
Sequence of UniProt P18510 (P18510 26-177): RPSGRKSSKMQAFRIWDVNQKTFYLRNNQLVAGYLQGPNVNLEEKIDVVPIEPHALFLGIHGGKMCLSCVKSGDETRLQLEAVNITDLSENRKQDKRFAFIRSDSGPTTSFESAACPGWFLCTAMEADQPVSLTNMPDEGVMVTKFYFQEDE

Kd: 0.014 nM
Substance: soluble IL-1RI ECD (from UniProt P14778)
